Consider 3 substances from paper PMC4259466.

Assay [1] deals with ROCK2 (UniProt O75116). Kind of assay: GST-MLC2 pull-down from HeLa lysate. As to conditions: sites Y118.
Assay [2] deals with MLC2 (UniProt P10916). Kind of assay: His-PKM2 bead pull-down of GST-MLC2. As to conditions: reference: WT His-PKM2 without Aurora B; sites T45.

Regarding “MLC2 (from UniProt P10916) GST-MLC2 Y118F”, the “binding against the reference” value in assay [1] (reference: GST-MLC2 wild type) was “lost”. As for “MLC2 (from UniProt P10916) GST-MLC2 with PKM2 and PEP”, the “binding against the reference” value in assay [1] (reference: GST-MLC2 with PKM2, no PEP) is “stronger”. For “PKM2 (from UniProt P14618) WT His-PKM2 treated with Aurora B”, the “binding against the reference” value in assay [2] is listed as “stronger”.
